Consider one molecule from US12662540B2, “Compositions and methods for inhibition of MICA/B shedding” (DANA-FARBER CANCER INSTITUTE, INC., priority 2017, dated 2026).

The target of test [1] is NKG2D binding to MICA (Homo sapiens, UniProt Q29983, C59Y/G229S/K148E/K196E/M152V/Q274R/S238T/T236I/T47A/W233R). The experiment in a line: Bead assay for NKG2D receptor binding to MICA. To be noted: MICA (allele 008) beads, human NKG2D-Fc dimer 10 μg/ml. As to the method:
Streptavidin-conjugated C4 beads (BD Pharmingen) were incubated for 2 hours with MICA biotinylated at a C-terminal BirA site (200 ng of MICA per 10,000 beads). Beads were then washed with PBS containing 1% FBS. For the NKG2D receptor binding assay, chimeric human NKG2D-Fc dimer (1299-NK-050, R&D Systems) was conjugated with Alexa^488 (A10468, Molecular Probes) and used at 10 μg/ml. Binding of murine NKG2D to human MICA was measured using NKG2D-Fc dimers (10 μg/ml) followed by an Alexa^488-conjugated anti-human IgG (Molecular Probes) that bound to the Fc region of the NKG2D-Fc dimer. MICA antibodies were also used as competitors for NKG2D dimer binding at concentrations of 10, 30 and 100 μg/ml. In these assays, NKG2D dimer and MICA antibodies were co-incubated with biotinylated MICA*008-conjugated beads.

The subject of test [2] is B16F10-MICA cells. The experiment in a line: Mouse NK cell transfer and B16F10-MICA metastases in Rag2−/− Il2rg−/− mice. Format: in vivo. The protocol:
NK cell adoptive transfer was done as described previously (25). Briefly, NK cells from mice of indicated genotypes were isolated from the spleen, enriched by negative selection, and sorted to achieve an NK cell purity of ˜99%. Subsequently, 2×10^5 NK cells were injected intravenously into Rag2^−/− IL2rg^−/− mice. Three days later, reconstitution was checked in blood samples by flow cytometry, and no differences in NK cell frequency were observed among the NK cell genotypes. Subsequently, 4×10^5 B16F10-MICA cells (with luciferase reporter) were injected intravenously (day 0). On days 1, 2, 7, and 10, mice received 200 μg 7C6-mIgG2b or MPC-11 (isotype control) by intraperitoneal injection. Mice were bled at the indicated time points. Euthanasia by CO2 inhalation was performed on day 14 followed by counting of superficial lung metastases as described above.

Test [3] has as its system B16F10-MICA lung metastases. The test is described as follows: Flow cytometry-based analysis of immune and tumor cells in lung tissue. It counts as in vivo, C57BL/6 mice. The protocol:
Wild-type mice were injected with 1×10^6 B16F10 cells that were previously transduced with ZsGreen-based lentiviral vectors (full-length MICA, secreted MICA or empty vector). In some experiments, mice received a lower dose of B16F10-MICA tumor cells (7×10^5). On days 1, 2, 7 and 10 following B16F10-MICA cell injection, mice received 200 μg of 7C6-mIgG2a or isotype control (C1184) antibodies by intraperitoneal injection. Prior to euthanasia, mice received an intravenous injection of 50 μl of APC-conjugated anti-CD45.2 (clone104, Biolegend) to label intravascular immune cells. Approximately 5 minutes later, mice were euthanized by CO2 inhalation and cell suspensions were generated from lung tissue. Lungs were cut into small pieces which were re-suspended in 10 ml of RPMI-1640 supplemented with 1 mg/ml collagenase type IV, 0.1 mg/ml hyaluronidase, and 20 U/ml DNase type IV. Samples were dissociated in a gentleMACS instrument (Miltenyi) using the program 37C_m_LDK 1 which digests the tissue by incubation with 37° C. followed by mechanical dissociation. Cells were then washed with PBS, Fc receptors were blocked with Mouse True Stain FcX (Biolegend), and cells were stained with PE-Cy7 or v450-conjugated anti-CD45.2 (104), PE or BV785-NK1.1 (PK136), PerCP-Cy5.5 or Alexa^700-NKp46 (29A1.4), APC or APC-Cy7-CD3c (145.2C11), APC or BV511-TCRβ, PE-Cy5 or Alexa^488-CD69 (H1.2F3), BV421-NKG2D (CX5), BV510-Ly49C (5E6), BV570-CD62L (MEL-14), BV605-CD49a (Ha31/8), Alexa^488-EOMES (Dan11mag), PE-Granzyme A (GzA-3G8.5), PE or PERCP-Cy5.5-CD16/CD32 (93), PE-Cy7-Granzyme B (NGZB), BV510-DNAM-1 (10E5), Alexa^488-KLRG1 (2F1), PE-CXCR6 (SA051D1), PERCP-Cy5.5 or PE-Cy7-CD127 (A7R34), BV510-CXCR3 (CXCR3-173), Zombie NIR, Zombie Yellow or Zombie UV (all from Biolegend, BD Pharmigen or eBiosciences). For transcription factor staining, cells were fixed and permeabilized by a Transcription Factor Buffer kit (BDB562574). For Fc receptor staining, small aliquots of cells from the lung suspensions were separated and stained with PE or PerCP-Cy5.5-CD16/32 antibody (the incubation with Mouse True Stain FcX was skipped in that aliquot of cells). Tumor cells were stained with APC-conjugated anti-H2-Kb (AF6-88.5, Biolegend) and BV650-activated Caspase-3 (C92-605, BD Pharmingen) following permeabilization. Even though the CD45.2 antibody given intravenously and the anti-H2-Kb antibody were conjugated to the same fluorophore (APC), B16F10 cells could be identified based on their larger size, ZsGreen expression as well as the absence of CD45.2 expression. Samples were acquired using a LSR Fortessa, CytoFLEX or a Sony Spectral Analyzer and analyzed by FlowJo V10 software.

Sequence of NKG2D binding to MICA (Q29983 24-307 T47A/C59Y/K148E/M152V/K196E/G229S/W233R/T236I/S238T/Q274R): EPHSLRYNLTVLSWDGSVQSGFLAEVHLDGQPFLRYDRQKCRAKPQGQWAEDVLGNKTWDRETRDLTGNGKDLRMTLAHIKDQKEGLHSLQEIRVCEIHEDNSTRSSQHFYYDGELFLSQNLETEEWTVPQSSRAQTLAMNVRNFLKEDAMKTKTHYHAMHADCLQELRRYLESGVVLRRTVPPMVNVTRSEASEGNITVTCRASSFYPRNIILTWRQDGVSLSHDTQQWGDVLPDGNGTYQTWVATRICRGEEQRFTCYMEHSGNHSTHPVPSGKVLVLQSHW

B1: 7C6: monoclonal antibody from mice immunized with recombinant MICA α3 domain; parental mIgG2b; VH SEQ ID NO: 7, VL SEQ ID NO: 8 (antibody)
VH: QIQLVQSGPELKKPGETVKVSCKASGYMFTNYAMNWVKQAPEKGLKWMGWINTHTGDPTYADDFKGRIAFSLETSASTAYLQINNLKNEDTATYFCVRTYGNYAMDYWGQGTSVTVSSAKTTAPSVYPLAPVCGDTTGSSVTLGCLVKGYFPEPVTLTWNSGSLSSGVHTFPAVLQSDLYTLSSSVTVTSS
VL: DIQMTQTTSSLSASLGDRVTISCSASQDISNYLNWYQQKPDGTVKLLIYDTSILHLGVPSRFSGSGSGTDYSLTISNLEPEDIATYYCQQYSKFPRTFGGGTTLEIK
modifications: mAb 7C6 heavy chain amino acid sequence; mAb 7C6 light chain amino acid sequence
Regarding B1, the “inhibition of NKG2D receptor binding to MICA” value in test [1] is recorded as “do not inhibit NKG2D receptor binding”. In addition, in test [2] (day 14), the “lung metastases after transfer of NK cells deficient in either NKG2D (Klrk1) or CD16 (Fcgr3a)” value is on record as “therapeutic effect was maintained (but more variable)”; the “lung metastases after transfer of NK cells lacking both NKG2D and CD16” value is “antibody therapy was ineffective”; the “lung metastases after transfer of WT NK cells” value is given as “most consistent reduction in the number of lung metastases”. For the same molecule, the “serum shed MICA after transfer of NK cells lacking both NKG2D and CD16” value in test [2] (mouse, in vivo) is recorded as “shed MICA was still reduced”. In addition, in test [3] (lung metastases), the “H2-Kb (MHC class I) expression by tumor cells” value is recorded as “MHC class I upregulation” and the “apoptosis of tumor cells (active caspase-3)” value is “massive tumor cell apoptosis”. The “B16F10-MICA tumor cells within lung tissue (percentage, absolute numbers)” value in test [3] (mouse, in vivo) is “substantial reduction of tumor cell load within lung tissue”. The “NKG2D levels on lung-infiltrating NK cells” value in test [3] (versus isotype control) is “restored NKG2D levels by lung NK cells”.
